How the values were obtained:
[1] = target: anti-Myc mAb-HRP conjugate (Invitrogen); experiment: competition ELISA: anti-Myc mAb-HRP on coated Myc peptide, 10x diluted c-ART-b sample as competitor
[2] = target: T1, human melanocortin-3 receptor (human, UniProt P41968 1-323); experiment: displacement of 0.2 nM 125I-NDP-α-MSH from membranes of cells stably expressing human MC3R, filtration
T1 construct: whole, on cells; Membrane preparations of stably expressing cells; also called hMC3R; MC3R

[3] = target: T2, human melanocortin-4 receptor (human, UniProt P32245 1-332); experiment: displacement of 0.2 nM 125I-NDP-α-MSH from membranes of cells stably expressing human MC4R, filtration
T2 construct: whole, on cells; Membrane preparations of stably expressing cells; also called hMC4R; MC4R
T2 sequence (P32245 whole entry): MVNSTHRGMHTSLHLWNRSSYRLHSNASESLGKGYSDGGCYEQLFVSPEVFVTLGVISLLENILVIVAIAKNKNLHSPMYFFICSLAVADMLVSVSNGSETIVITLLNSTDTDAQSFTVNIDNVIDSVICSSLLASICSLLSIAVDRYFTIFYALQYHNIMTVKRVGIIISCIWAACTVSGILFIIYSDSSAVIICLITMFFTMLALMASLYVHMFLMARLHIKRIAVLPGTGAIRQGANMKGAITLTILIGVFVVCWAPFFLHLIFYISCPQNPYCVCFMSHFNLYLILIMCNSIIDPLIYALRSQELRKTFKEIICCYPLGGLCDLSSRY

T1 sequence (P41968 whole entry): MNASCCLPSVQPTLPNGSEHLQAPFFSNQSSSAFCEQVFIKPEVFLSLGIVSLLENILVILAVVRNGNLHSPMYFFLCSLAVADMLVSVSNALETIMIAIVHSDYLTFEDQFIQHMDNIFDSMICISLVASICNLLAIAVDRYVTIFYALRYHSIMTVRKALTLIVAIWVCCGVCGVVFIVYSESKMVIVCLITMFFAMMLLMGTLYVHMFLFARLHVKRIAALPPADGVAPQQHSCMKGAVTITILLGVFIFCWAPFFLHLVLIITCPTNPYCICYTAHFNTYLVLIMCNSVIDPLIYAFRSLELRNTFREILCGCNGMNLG

| Molecule | absorbance [1] | IC50 [2] [nM] | IC50 [3] [nM] |
| --- | --- | --- | --- |
| c-ART-b (from UniProt O00253 1-26; O00253 76-132) (ligand) | 0.079 | 1.9 | 1.4 |
| full-length human ART protein (ligand, UniProt O00253 21-132, looked up, not shown: small tags and cut ends, range 1-132; Recombinant ART as described by Fong et al. 1997 (ART cDNA in pcDNA3.1-Myc-His-A); also called full length ART; full-length ART protein) AQMGLAPMEGIRRPDQALLPELPGLGLRAPLKKTTAEQAEEDLLQEAQALAEVLDLQDREPRSSRRCVRLHESCLGQQVPCCDPCATCYCRFFNAFCYCRKLGTAMNPCSRT |  | 1 | 0.5 |
